Experimental data reported in paper PMC4980077 (The FEBS journal, 2016).
Square brackets hold non-standard residues; d marks the D form. Ends that are not written are not given here. * marks the point of attachment. 5‑TAMRA = CN(C)c1ccc2c(-c3ccc(C(=O)*)cc3C(=O)[O-])c3ccc(N(C)C)cc3[o+]c2c1; pS = N[C@@H](COP(=O)(O)O)C(=O)O

Tests used:
[1] = molecular target: full-length PKA-RIα regulatory subunit dimer (bovine, UniProt P00514 1-380); test: fluorescence polarisation
[2] = molecular target: full-length PKA-RIβ regulatory subunit dimer (UniProt P31321 1-381); test: fluorescence polarisation
Sequence of full-length PKA-RIβ regulatory subunit dimer (P31321 whole entry): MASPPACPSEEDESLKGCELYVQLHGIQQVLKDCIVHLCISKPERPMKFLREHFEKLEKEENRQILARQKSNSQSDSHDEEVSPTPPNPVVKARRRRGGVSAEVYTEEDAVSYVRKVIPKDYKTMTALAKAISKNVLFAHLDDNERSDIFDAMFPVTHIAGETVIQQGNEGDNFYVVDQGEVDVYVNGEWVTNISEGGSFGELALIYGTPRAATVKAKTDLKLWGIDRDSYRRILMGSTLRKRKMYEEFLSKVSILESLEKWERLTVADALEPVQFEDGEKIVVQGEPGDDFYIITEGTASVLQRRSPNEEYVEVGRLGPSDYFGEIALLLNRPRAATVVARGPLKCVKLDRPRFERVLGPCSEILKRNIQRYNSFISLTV

Sequence of full-length PKA-RIα regulatory subunit dimer (P00514 whole entry): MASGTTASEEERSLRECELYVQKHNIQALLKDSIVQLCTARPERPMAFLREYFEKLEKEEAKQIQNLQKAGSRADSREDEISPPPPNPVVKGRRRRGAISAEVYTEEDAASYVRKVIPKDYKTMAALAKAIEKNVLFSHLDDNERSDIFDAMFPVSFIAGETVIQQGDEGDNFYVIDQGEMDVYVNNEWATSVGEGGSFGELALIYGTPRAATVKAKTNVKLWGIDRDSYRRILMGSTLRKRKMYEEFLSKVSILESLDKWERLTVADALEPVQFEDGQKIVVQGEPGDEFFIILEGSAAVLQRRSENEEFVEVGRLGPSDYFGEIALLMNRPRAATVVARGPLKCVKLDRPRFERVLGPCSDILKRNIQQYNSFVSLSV

Kd [1]: > 500 nM
Kd [2]: > 500 nM
Binder: {5‑TAMRA}-IVILEYAHRL[pS]QDILCDALQQWAC (cysteine pairing not given here) [phosphorylated smAKAP-AKB domain peptide (pSer66), tagged with 5-TAMRA]
